Six substances from publication PMC8591539 can be followed below.

In experiment [1] the target is DDB1-DCAF1 (FL) sub-complex (human) (UniProt Q16531). Kind of experiment: SEC-MALS. (In general: Size exclusion chromatography separates by hydrodynamic size, large species first.)
Experiment [2] has as its target CRL4^DCAF1 (FL) (R1247A) mutant (human) (UniProt Q13619). The experiment is described as follows: SEC-MALS.
The target in experiment [3] is CRL4^DCAF1 (FL)-VPR complex (human | HIV-1) (UniProt Q13619). The experiment is described as follows: SEC-MALS.
Experiment [4] has as its target CRL4^DCAF1(FL)-MERLIN complex (UniProt Q13619). Kind of experiment: SEC-MALS.
The target in experiment [5] is CRL4^DCAF1 (FL) (CUL4A-RBX1-DDB1-DCAF1), unneddylated (human) (UniProt Q13619). Kind of experiment: SEC-MALS.
For experiment [6] the target is unchanged. The experiment is described as follows: cryo-EM structure.
For experiment [7], the target named is CRL4^DCAF1 (FL)-VPR-UNG2 complex (human | HIV-1 | not stated) (UniProt Q13619). Kind of experiment: SEC-MALS.

Chain of CRL4^DCAF1 (FL) (CUL4A-RBX1-DDB1-DCAF1), unneddylated (Q13619 whole entry): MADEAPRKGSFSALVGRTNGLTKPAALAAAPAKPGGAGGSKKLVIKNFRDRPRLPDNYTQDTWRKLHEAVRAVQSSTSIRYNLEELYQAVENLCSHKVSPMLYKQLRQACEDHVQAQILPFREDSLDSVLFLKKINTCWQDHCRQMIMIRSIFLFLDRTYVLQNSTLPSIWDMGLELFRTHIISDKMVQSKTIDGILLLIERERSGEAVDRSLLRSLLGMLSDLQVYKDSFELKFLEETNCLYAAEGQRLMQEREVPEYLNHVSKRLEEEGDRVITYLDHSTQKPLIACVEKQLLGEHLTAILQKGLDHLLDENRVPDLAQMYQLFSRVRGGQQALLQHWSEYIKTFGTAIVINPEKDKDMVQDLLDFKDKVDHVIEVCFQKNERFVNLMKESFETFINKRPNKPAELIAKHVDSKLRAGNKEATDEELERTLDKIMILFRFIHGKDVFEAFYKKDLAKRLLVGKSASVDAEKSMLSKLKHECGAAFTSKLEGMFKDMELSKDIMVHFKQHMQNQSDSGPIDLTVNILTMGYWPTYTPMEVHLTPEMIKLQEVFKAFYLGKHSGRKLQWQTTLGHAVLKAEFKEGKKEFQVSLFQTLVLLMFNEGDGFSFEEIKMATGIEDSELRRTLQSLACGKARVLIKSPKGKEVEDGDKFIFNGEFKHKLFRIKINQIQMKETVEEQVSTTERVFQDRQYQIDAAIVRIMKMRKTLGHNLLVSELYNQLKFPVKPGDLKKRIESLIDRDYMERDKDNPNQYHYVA
Chain of CRL4^DCAF1 (FL) (CUL4A-RBX1-DDB1-DCAF1), unneddylated (P62877 whole entry): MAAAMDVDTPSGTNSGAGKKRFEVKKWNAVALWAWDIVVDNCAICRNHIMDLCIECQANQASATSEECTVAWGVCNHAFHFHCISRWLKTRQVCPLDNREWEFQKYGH
Chain of CRL4^DCAF1 (FL) (CUL4A-RBX1-DDB1-DCAF1), unneddylated (Q16531 whole entry): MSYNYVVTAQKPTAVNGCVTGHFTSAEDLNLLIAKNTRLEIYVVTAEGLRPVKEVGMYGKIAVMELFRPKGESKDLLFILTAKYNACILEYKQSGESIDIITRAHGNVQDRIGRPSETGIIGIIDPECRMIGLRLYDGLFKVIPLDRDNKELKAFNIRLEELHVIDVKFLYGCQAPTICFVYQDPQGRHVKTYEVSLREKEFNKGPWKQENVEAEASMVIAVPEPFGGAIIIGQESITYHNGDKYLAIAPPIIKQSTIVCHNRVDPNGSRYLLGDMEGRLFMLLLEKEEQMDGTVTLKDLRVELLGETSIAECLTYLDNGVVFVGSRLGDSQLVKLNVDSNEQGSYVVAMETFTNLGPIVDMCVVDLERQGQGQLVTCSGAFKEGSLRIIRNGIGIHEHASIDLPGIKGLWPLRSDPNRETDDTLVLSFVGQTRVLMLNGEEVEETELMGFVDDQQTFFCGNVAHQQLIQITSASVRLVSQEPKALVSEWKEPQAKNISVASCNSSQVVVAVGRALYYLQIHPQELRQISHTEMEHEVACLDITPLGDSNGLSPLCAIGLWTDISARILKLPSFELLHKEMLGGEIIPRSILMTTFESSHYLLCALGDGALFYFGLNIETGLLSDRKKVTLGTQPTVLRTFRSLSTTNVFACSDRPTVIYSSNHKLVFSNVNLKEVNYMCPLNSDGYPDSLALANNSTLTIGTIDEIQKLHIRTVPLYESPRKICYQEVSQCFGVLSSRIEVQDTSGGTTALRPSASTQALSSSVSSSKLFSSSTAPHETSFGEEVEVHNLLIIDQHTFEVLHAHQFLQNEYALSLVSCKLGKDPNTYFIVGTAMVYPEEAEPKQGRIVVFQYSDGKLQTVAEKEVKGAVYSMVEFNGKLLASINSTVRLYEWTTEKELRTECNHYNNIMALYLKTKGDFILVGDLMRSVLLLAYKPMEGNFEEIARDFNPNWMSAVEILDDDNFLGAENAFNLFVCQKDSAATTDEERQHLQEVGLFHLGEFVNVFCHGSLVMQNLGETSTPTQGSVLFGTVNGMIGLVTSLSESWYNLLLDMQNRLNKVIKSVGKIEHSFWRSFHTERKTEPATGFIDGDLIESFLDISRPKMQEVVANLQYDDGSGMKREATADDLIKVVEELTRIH
Chain of CRL4^DCAF1 (FL) (CUL4A-RBX1-DDB1-DCAF1), unneddylated (Q9Y4B6 whole entry): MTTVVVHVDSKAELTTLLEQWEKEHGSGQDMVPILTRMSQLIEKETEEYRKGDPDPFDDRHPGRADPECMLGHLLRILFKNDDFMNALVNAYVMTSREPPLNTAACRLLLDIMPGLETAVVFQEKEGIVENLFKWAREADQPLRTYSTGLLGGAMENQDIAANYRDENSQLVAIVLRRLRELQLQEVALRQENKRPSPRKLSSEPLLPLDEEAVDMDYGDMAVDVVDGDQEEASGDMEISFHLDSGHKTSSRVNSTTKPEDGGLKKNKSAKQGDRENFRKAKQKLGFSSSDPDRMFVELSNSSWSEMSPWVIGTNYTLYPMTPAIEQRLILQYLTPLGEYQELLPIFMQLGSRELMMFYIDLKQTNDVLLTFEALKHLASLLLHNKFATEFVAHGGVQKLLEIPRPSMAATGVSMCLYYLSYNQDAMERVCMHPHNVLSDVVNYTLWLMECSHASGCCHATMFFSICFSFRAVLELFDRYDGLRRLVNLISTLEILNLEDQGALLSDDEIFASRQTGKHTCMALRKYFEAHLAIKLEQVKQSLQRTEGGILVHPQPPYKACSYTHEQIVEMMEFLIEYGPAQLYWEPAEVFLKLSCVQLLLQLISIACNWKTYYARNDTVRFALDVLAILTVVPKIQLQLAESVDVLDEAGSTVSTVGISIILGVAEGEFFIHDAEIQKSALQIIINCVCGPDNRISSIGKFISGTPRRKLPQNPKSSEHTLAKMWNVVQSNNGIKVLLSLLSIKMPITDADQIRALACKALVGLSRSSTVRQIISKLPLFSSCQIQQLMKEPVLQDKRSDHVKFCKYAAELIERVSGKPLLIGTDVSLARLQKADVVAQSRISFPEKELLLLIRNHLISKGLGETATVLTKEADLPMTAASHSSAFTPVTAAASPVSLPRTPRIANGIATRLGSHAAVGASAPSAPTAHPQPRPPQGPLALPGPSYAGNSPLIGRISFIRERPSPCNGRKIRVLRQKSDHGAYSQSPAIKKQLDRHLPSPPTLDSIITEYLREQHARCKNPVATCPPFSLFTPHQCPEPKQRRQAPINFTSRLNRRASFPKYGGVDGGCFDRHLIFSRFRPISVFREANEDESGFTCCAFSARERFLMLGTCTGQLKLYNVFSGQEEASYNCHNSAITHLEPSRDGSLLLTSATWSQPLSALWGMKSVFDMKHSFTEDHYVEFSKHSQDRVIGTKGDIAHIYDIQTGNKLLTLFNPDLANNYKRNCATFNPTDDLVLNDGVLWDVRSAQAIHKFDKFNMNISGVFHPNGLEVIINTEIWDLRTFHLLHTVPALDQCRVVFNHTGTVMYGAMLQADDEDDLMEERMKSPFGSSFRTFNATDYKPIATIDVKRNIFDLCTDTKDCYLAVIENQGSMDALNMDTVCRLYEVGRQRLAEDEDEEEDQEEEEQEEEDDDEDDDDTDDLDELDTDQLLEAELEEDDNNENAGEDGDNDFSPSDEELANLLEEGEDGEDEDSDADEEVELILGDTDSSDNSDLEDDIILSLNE

Broadly, the stoichiometry N is a count of units in the complex or per binding partner. With “DDB1-DCAF1 (FL) sub-complex (from UniProt Q16531;Q9Y4B6)”, the stoichiometry N in experiment [1] turned out to be 2.
“CRL4^DCAF1 (FL) (R1247A) mutant (from UniProt Q13619;P62877;Q16531;Q9Y4B6) (complex)”: the stoichiometry N in experiment [2] was 2.
In experiment [3], “CRL4^DCAF1 (FL)-VPR complex (from UniProt Q13619;P62877;Q16531;Q9Y4B6;P12520)” had a stoichiometry N of 4.
Take “CRL4^DCAF1(FL)-MERLIN complex (from UniProt Q13619;P62877;Q16531;Q9Y4B6;P35240)”: in experiment [4], the stoichiometry N worked out at 4.
Consider “CRL4^DCAF1 (FL) (CUL4A-RBX1-DDB1-DCAF1), unneddylated (from UniProt Q13619;P62877;Q16531;Q9Y4B6) (complex)”, for which the stoichiometry N in experiment [5] and in experiment [6] was 4 in each case.
“CRL4^DCAF1 (FL)-VPR-UNG2 complex (from UniProt Q13619;P62877;Q16531;Q9Y4B6;P12520;P13051-1)” had a stoichiometry N in experiment [7] of 2.
